Source: article PMC4555872

Assays:
[1] = target: BG505 SOSIP.664 gp140 trimer (cleaved) (HIV-1 (BG505)); experiment: negative stain electron microscopy
[2] = target: BG505 WT.SEKS gp140 (uncleaved) (HIV-1 (BG505)); experiment: negative stain electron microscopy
[3] = target: CZA97.012 gp140 (uncleaved, foldon, His-tagged) (HIV-1 (subtype C, CZA97.012) | not stated); experiment: SEC

BG505 SOSIP.664 gp140 trimer (cleaved) (complex)
stoichiometry N [1]: 3

BG505 WT.SEKS gp140 (uncleaved)
stoichiometry N [2]: 3

CZA97.012 gp140 (uncleaved, foldon, His-tagged)
stoichiometry N [3]: 3
